{"source": "the Human Domainome abundance scans (Beltran et al. 2025)", "parents": {"B1": {"name": "Ankyrin-2, residues 3571 to 3650; numbered along this chain, Q01484 (parent)", "chain": "ERLAYIADHLGFSWTELARELDFTEEQIHQIRIENPNSLQDQSHALLKYWLERDGKHATDTNLVECLTKINRMDIVHLME"}, "B2": {"name": "Transcription elongation regulator 1-like protein, residues 448 to 504; numbered along this chain, Q5VWI1 (parent)", "chain": "LPLEERVTHFRDMLLERGVSAFSTWEKELHKIVFDPRYLLLNSEERKQIFEQFVKTR"}}, "note": "± gives the uncertainty stated by the source."}
{"variants_of": "B1", "assay": "abundance fitness (aPCA) (normalised: wild type 0, dead -1); higher = more abundant; growth selection in yeast, the domain comes from the species named", "conditions": "Homo sapiens"}
{"variant": "ERLAYIADHLGFSWTELARELDFTEEQIHQIRIENPNSLQDQSHALLKYWLERDGKHATDTNLVECLTKINRMDITHLME", "note": "[V76T]", "abundance fitness": "-0.223 ± 0.14"}
{"variant": "ERLAYIADHLGFSWTELARELDFTEEQIHQIRIENPNSLQDQSHALLKYWLERDGKHATDTNLVECLTKINRMDIGHLME", "note": "[V76G]", "abundance fitness": "-0.216 ± 0.046"}
{"variant": "ERLAYIADHLGFSWTELARELDFTEEQIHQIRIENPNSLQDQSHALLKYWLERDGKHATDTNLVECLTKINRMDIIHLME", "note": "[V76I]", "abundance fitness": "0.04 ± 0.088"}
{"variant": "ERLAYIADHLGFSWTELARELDFTEEQIHQIRIENPNSLQDQSHALLKYWLERDGKHATDTNLVECLTKINRMDIHHLME", "note": "[V76H]", "abundance fitness": "-0.084 ± 0.13"}
{"variant": "ERLAYIADHLGFSWTELARELDFTEEQIHQIRIENPNSLQDQSHALLKYWLERDGKHATDTNLVECLTKINRMDISHLME", "note": "[V76S]", "abundance fitness": "-0.219 ± 0.1"}
{"variant": "ERLAYIADHLGFSWTELARELDFTEEQIHQIRIENPNSLQDQSHALLKYWLERDGKHATDTNLVECLTKINRMDIMHLME", "note": "[V76M]", "abundance fitness": "-0.099 ± 0.12"}
{"variant": "ERLAYIADHLGFSWTELARELDFTEEQIHQIRIENPNSLQDQSHALLKYWLERDGKHATDTNLVECLTKINRMDILHLME", "note": "[V76L]", "abundance fitness": "-0.081 ± 0.091"}
{"variant": "ERLAYIADHLGFSWTELARELDFTEEQIHQIRIENPNSLQDQSHALLKYWLERDGKHATDTNLVECLTKINRMDIQHLME", "note": "[V76Q]", "abundance fitness": "-0.107 ± 0.16"}
{"variant": "ERLAYIADHLGFSWTELARELDFTEEQIHQIRIENPNSLQDQSHALLKYWLERDGKHATDTNLVECLTKINRMDIRHLME", "note": "[V76R]", "abundance fitness": "-0.223 ± 0.093"}
{"variants_of": "B2", "assay": "abundance fitness (aPCA) (normalised: wild type 0, dead -1); higher = more abundant; growth selection in yeast, the domain comes from the species named", "conditions": "Homo sapiens"}
{"variant": "WPLEERVTHFRDMLLERGVSAFSTWEKELHKIVFDPRYLLLNSEERKQIFEQFVKTR", "note": "[L1W]", "abundance fitness": "-0.717 ± 0.16"}
{"variant": "APLEERVTHFRDMLLERGVSAFSTWEKELHKIVFDPRYLLLNSEERKQIFEQFVKTR", "note": "[L1A]", "abundance fitness": "-0.321 ± 0.33"}
{"variant": "VPLEERVTHFRDMLLERGVSAFSTWEKELHKIVFDPRYLLLNSEERKQIFEQFVKTR", "note": "[L1V]", "abundance fitness": "-0.4 ± 0.18"}
{"variant": "FPLEERVTHFRDMLLERGVSAFSTWEKELHKIVFDPRYLLLNSEERKQIFEQFVKTR", "note": "[L1F]", "abundance fitness": "0.408 ± 0.27"}
{"variant": "SPLEERVTHFRDMLLERGVSAFSTWEKELHKIVFDPRYLLLNSEERKQIFEQFVKTR", "note": "[L1S]", "abundance fitness": "-0.082 ± 0.3"}
{"variant": "IPLEERVTHFRDMLLERGVSAFSTWEKELHKIVFDPRYLLLNSEERKQIFEQFVKTR", "note": "[L1I]", "abundance fitness": "2.04 ± 0.48"}
{"variant": "LELEERVTHFRDMLLERGVSAFSTWEKELHKIVFDPRYLLLNSEERKQIFEQFVKTR", "note": "[P2E]", "abundance fitness": "0.88 ± 0.073"}
{"variant": "LQLEERVTHFRDMLLERGVSAFSTWEKELHKIVFDPRYLLLNSEERKQIFEQFVKTR", "note": "[P2Q]", "abundance fitness": "0.364 ± 0.16"}
{"variant": "LLLEERVTHFRDMLLERGVSAFSTWEKELHKIVFDPRYLLLNSEERKQIFEQFVKTR", "note": "[P2L]", "abundance fitness": "-0.147 ± 0.26"}
{"variant": "LCLEERVTHFRDMLLERGVSAFSTWEKELHKIVFDPRYLLLNSEERKQIFEQFVKTR", "note": "[P2C]", "abundance fitness": "0.766 ± 0.23"}
{"variant": "LTLEERVTHFRDMLLERGVSAFSTWEKELHKIVFDPRYLLLNSEERKQIFEQFVKTR", "note": "[P2T]", "abundance fitness": "1.24 ± 0.085"}
{"variant": "LKLEERVTHFRDMLLERGVSAFSTWEKELHKIVFDPRYLLLNSEERKQIFEQFVKTR", "note": "[P2K]", "abundance fitness": "0.925 ± 0.075"}
{"variant": "LWLEERVTHFRDMLLERGVSAFSTWEKELHKIVFDPRYLLLNSEERKQIFEQFVKTR", "note": "[P2W]", "abundance fitness": "0 ± 0.31"}
{"variant": "LSLEERVTHFRDMLLERGVSAFSTWEKELHKIVFDPRYLLLNSEERKQIFEQFVKTR", "note": "[P2S]", "abundance fitness": "1.09 ± 0.14"}
{"variant": "LRLEERVTHFRDMLLERGVSAFSTWEKELHKIVFDPRYLLLNSEERKQIFEQFVKTR", "note": "[P2R]", "abundance fitness": "0.776 ± 0.092"}
{"variant": "LVLEERVTHFRDMLLERGVSAFSTWEKELHKIVFDPRYLLLNSEERKQIFEQFVKTR", "note": "[P2V]", "abundance fitness": "-0.031 ± 0.34"}
{"variant": "LNLEERVTHFRDMLLERGVSAFSTWEKELHKIVFDPRYLLLNSEERKQIFEQFVKTR", "note": "[P2N]", "abundance fitness": "1.18 ± 0.37"}
{"variant": "LDLEERVTHFRDMLLERGVSAFSTWEKELHKIVFDPRYLLLNSEERKQIFEQFVKTR", "note": "[P2D]", "abundance fitness": "1.26 ± 0.14"}
{"variant": "LALEERVTHFRDMLLERGVSAFSTWEKELHKIVFDPRYLLLNSEERKQIFEQFVKTR", "note": "[P2A]", "abundance fitness": "0.331 ± 0.18"}
{"variant": "LPGEERVTHFRDMLLERGVSAFSTWEKELHKIVFDPRYLLLNSEERKQIFEQFVKTR", "note": "[L3G]", "abundance fitness": "-0.214 ± 0.14"}
{"variant": "LPFEERVTHFRDMLLERGVSAFSTWEKELHKIVFDPRYLLLNSEERKQIFEQFVKTR", "note": "[L3F]", "abundance fitness": "0.04 ± 0.41"}
{"variant": "LPEEERVTHFRDMLLERGVSAFSTWEKELHKIVFDPRYLLLNSEERKQIFEQFVKTR", "note": "[L3E]", "abundance fitness": "0.132 ± 0.2"}
{"variant": "LPKEERVTHFRDMLLERGVSAFSTWEKELHKIVFDPRYLLLNSEERKQIFEQFVKTR", "note": "[L3K]", "abundance fitness": "0.487 ± 0.15"}
{"variant": "LPCEERVTHFRDMLLERGVSAFSTWEKELHKIVFDPRYLLLNSEERKQIFEQFVKTR", "note": "[L3C]", "abundance fitness": "-0.857 ± 0.23"}
{"variant": "LPHEERVTHFRDMLLERGVSAFSTWEKELHKIVFDPRYLLLNSEERKQIFEQFVKTR", "note": "[L3H]", "abundance fitness": "0.663 ± 0.21"}
{"variant": "LPDEERVTHFRDMLLERGVSAFSTWEKELHKIVFDPRYLLLNSEERKQIFEQFVKTR", "note": "[L3D]", "abundance fitness": "-0.135 ± 0.23"}
{"variant": "LPIEERVTHFRDMLLERGVSAFSTWEKELHKIVFDPRYLLLNSEERKQIFEQFVKTR", "note": "[L3I]", "abundance fitness": "0.427 ± 0.31"}
{"variant": "LPMEERVTHFRDMLLERGVSAFSTWEKELHKIVFDPRYLLLNSEERKQIFEQFVKTR", "note": "[L3M]", "abundance fitness": "0.309 ± 0.18"}
{"variant": "LPAEERVTHFRDMLLERGVSAFSTWEKELHKIVFDPRYLLLNSEERKQIFEQFVKTR", "note": "[L3A]", "abundance fitness": "-0.337 ± 0.13"}
